In patent US11653679B2, “High-purity steviol glycosides” (PureCircle Sdn Bhd, priority 2014, dated 2023):
Positions count from the first letter of the chain named.

B1: UGT76G1var28: UGT76G1 variant, mutations L243A_S274G_P382M (protein, UniProt Q6VAB4 1-458, looked up, variant L243A S274G P382M)
UDP-glycosyltransferase 76G1: MENKTETTVRRRRRIILFPVPFQGHINPILQLANVLYSKGFSITIFHTNFNKPKTSNYPHFTFRFILDNDPQDERISNLPTHGPLAGMRIPIINEHGADELRRELELLMLASEEDEEVSCLITDALWYFAQSVADSLNLRRLVLMTSSLFNFHAHVSLPQFDELGYLDPDDKTRLEEQASGFPMLKVKDIKSAYSNWQILKEILGKMIKQTKASSGVIWNSFKELEESELETVIREIPAPSFAIPLPKHLTASSSSLLDHDRTVFQWLDQQPPGSVLYVSFGSTSEVDEKDFLEIARGLVDSKQSFLWVVRPGFVKGSTWVEPLPDGFLGERGRIVKWVPQQEVLAHGAIGAFWTHSGWNSTLESVCEGVPMIFSDFGLDQMLNARYMSDVLKVGVYLENGWERGEIANAIRRVMVDEEGEYIRQNARVLKQKADVSLMKGGSSYESLESLVSYISSL
B2: UGT76G1var29: UGT76G1 variant, mutations F22Y_V279I_N409R (protein, UniProt Q6VAB4 1-458, looked up, variant F22Y V279I N409R)
UDP-glycosyltransferase 76G1: B1 UDP-glycosyltransferase 76G1 with F22Y, A243L, G274S, V279I, M382P, N409R
B3: UGT76G1var30: UGT76G1 variant, mutations I43V_E224A_S241I (protein, UniProt Q6VAB4 1-458, looked up, variant I43V E224A S241I)
UDP-glycosyltransferase 76G1: B1 UDP-glycosyltransferase 76G1 with I43V, E224A, S241I, A243L, G274S, M382P
B4: UGT76G1var31: UGT76G1 variant, mutations E224D_L243P_V300A (protein, UniProt Q6VAB4 1-458, looked up, variant E224D L243P V300A)
UDP-glycosyltransferase 76G1: B1 UDP-glycosyltransferase 76G1 with E224D, A243P, G274S, V300A, M382P
B5: UGT76G1var32: UGT76G1 variant, mutations A239V_L243A_S375M (protein, UniProt Q6VAB4 1-458, looked up, variant A239V L243A S375M)
UDP-glycosyltransferase 76G1: B1 UDP-glycosyltransferase 76G1 with A239V, G274S, S375M, M382P
B6: UGT76G1var33: UGT76G1 variant, mutations A33G_R334H_Y397Q (protein, UniProt Q6VAB4 1-458, looked up, variant A33G R334H Y397Q)
UDP-glycosyltransferase 76G1: B1 UDP-glycosyltransferase 76G1 with A33G, A243L, G274S, R334H, M382P, Y397Q
B7: UGT76G1var34: UGT76G1 variant, mutations I43V_T284I_I295T (protein, UniProt Q6VAB4 1-458, looked up, variant I43V T284I I295T)
UDP-glycosyltransferase 76G1: B1 UDP-glycosyltransferase 76G1 with I43V, A243L, G274S, T284I, I295T, M382P
B8: UGT76G1var35: UGT76G1 variant, mutations T284L_F314S_S357N (protein, UniProt Q6VAB4 1-458, looked up, variant T284L F314S S357N)
UDP-glycosyltransferase 76G1: B1 UDP-glycosyltransferase 76G1 with A243L, G274S, T284L, F314S, S357N, M382P
B9: UGT76G1var36: UGT76G1 variant, mutations F265L_L379A_V396F (protein, UniProt Q6VAB4 1-458, looked up, variant F265L L379A V396F)
UDP-glycosyltransferase 76G1: B1 UDP-glycosyltransferase 76G1 with A243L, F265L, G274S, L379A, M382P, V396F
B10: UGT76G1var37: UGT76G1 variant, mutations E229A_L379G_I407V (protein, UniProt Q6VAB4 1-458, looked up, variant E229A L379G I407V)
UDP-glycosyltransferase 76G1: B1 UDP-glycosyltransferase 76G1 with E229A, A243L, G274S, L379G, M382P, I407V
B11: UGT76G1var38: UGT76G1 variant, mutations F41L_I295M_F377C (protein, UniProt Q6VAB4 1-458, looked up, variant F41L I295M F377C)
UDP-glycosyltransferase 76G1: B1 UDP-glycosyltransferase 76G1 with F41L, A243L, G274S, I295M, F377C, M382P
B12: UGT76G1var39: UGT76G1 variant, mutations F22Y_F41L_V366I (protein, UniProt Q6VAB4 1-458, looked up, variant F22Y F41L V366I)
UDP-glycosyltransferase 76G1: B1 UDP-glycosyltransferase 76G1 with F22Y, F41L, A243L, G274S, V366I, M382P
B13: UGT76G1var40: UGT76G1 variant, mutations T263S_Q266E_S375R (protein, UniProt Q6VAB4 1-458, looked up, variant T263S Q266E S375R)
UDP-glycosyltransferase 76G1: B1 UDP-glycosyltransferase 76G1 with A243L, T263S, Q266E, G274S, S375R, M382P
B14: UGT76G1var41: UGT76G1 variant, mutations L246F_A385T_K393G (protein, UniProt Q6VAB4 1-458, looked up, variant L246F A385T K393G)
UDP-glycosyltransferase 76G1: B1 UDP-glycosyltransferase 76G1 with A243L, L246F, G274S, M382P, A385T, K393G
B15: UGT76G1var42: UGT76G1 variant, mutations T263S_Q266S_R334H (protein, UniProt Q6VAB4 1-458, looked up, variant T263S Q266S R334H)
UDP-glycosyltransferase 76G1: B1 UDP-glycosyltransferase 76G1 with A243L, T263S, Q266S, G274S, R334H, M382P
B16: UGT76G1var43: UGT76G1 variant, mutations S241I_P272A_V279I (protein, UniProt Q6VAB4 1-458, looked up, variant S241I P272A V279I)
UDP-glycosyltransferase 76G1: B1 UDP-glycosyltransferase 76G1 with S241I, A243L, P272A, G274S, V279I, M382P
B17: UGT76G1var44: UGT76G1 variant, mutations I335V_S375R_I407V (protein, UniProt Q6VAB4 1-458, looked up, variant I335V S375R I407V)
UDP-glycosyltransferase 76G1: B1 UDP-glycosyltransferase 76G1 with A243L, G274S, I335V, S375R, M382P, I407V
B18: UGT76G1var45: UGT76G1 variant, mutations V279I_D301N_S389E (protein, UniProt Q6VAB4 1-458, looked up, variant V279I D301N S389E)
UDP-glycosyltransferase 76G1: B1 UDP-glycosyltransferase 76G1 with A243L, G274S, V279I, D301N, M382P, S389E
B19: UGT76G1var46: UGT76G1 variant, mutations F22L_Q266E_I295M (protein, UniProt Q6VAB4 1-458, looked up, variant F22L Q266E I295M)
UDP-glycosyltransferase 76G1: B1 UDP-glycosyltransferase 76G1 with F22L, A243L, Q266E, G274S, I295M, M382P
B20: UGT76G1var1: UGT76G1 variant, mutations E224A_F314S_R334K (protein, UniProt Q6VAB4 1-458, looked up, variant E224A F314S R334K)
UDP-glycosyltransferase 76G1: B1 UDP-glycosyltransferase 76G1 with E224A, A243L, G274S, F314S, R334K, M382P
B21: UGT76G1var47: UGT76G1 variant, mutations E229A_T284I_S389E (protein, UniProt Q6VAB4 1-458, looked up, variant E229A T284I S389E)
UDP-glycosyltransferase 76G1: B1 UDP-glycosyltransferase 76G1 with E229A, A243L, G274S, T284I, M382P, S389E
B22: UGT76G1var48: UGT76G1 variant, mutations V394I_Y397E_Q432E (protein, UniProt Q6VAB4 1-458, looked up, variant V394I Y397E Q432E)
UDP-glycosyltransferase 76G1: B1 UDP-glycosyltransferase 76G1 with A243L, G274S, M382P, V394I, Y397E, Q432E
B23: UGT76G1var49: UGT76G1 variant, mutations F41L_Q266E_T284I_Y397Q (protein, UniProt Q6VAB4 1-458, looked up, variant F41L Q266E T284I Y397Q)
UDP-glycosyltransferase 76G1: B1 UDP-glycosyltransferase 76G1 with F41L, A243L, Q266E, G274S, T284I, M382P, Y397Q

Assay: Directed evolution of UGT76G1, Rebaudioside D to Rebaudioside M, round 1 (Example 26)
Format: biochemical
Conditions: 100 μL fresh lysate, 0.5 mM Rebaudioside D, 30° C., pH 7.2
Protocol: Lysis was performed by addition of Bugbuster® Master mix (Novagen®) to the thawed cells and the lysate was recovered by centrifugation. Activity tests were performed with 100 μL of fresh lysate that was added to a solution of Rebaudioside D (final concentration 0.5 mM), MgCl2 (final concentration 3 mM) and UDP-Glucose (final concentration 2.5 mM) in 50 mM phosphate buffer pH 7.2.
The reaction was allowed to run at 30° C. and samples were taken after 2, 4, 7 and 24 h. to determine conversion and initial rate by HPLC (CAD detection) using the analytical method that was described above for the transformation of Rebaudioside D to Rebaudioside M. The results are depicted in the following table.

Row | Molecule | conversion Reb D to Reb M after 24 h [%] | initial rate [Reb M area/min]
1 | B1 | 6.1 | 2.4E+06
2 | B2 | 41.0 | 2.9E+07
3 | B3 | – | 5.6E+06
4 | B4 | 0.4 | 2.4E+05
5 | B5 | 0.0 | −4.4E+04
6 | B6 | 1.0 | 7.5E+06
7 | B7 | 3.4 | 1.5E+06
8 | B8 | 0.5 | 1.8E+05
9 | B9 | 20.0 | 8.8E+06
10 | B10 | – | 2.8E+07
11 | B11 | 8.2 | 3.7E+06
12 | B12 | 7.2 | 3.3E+06
13 | B13 | – | 3.3E+07
14 | B14 | 0.8 | 1.4E+06
15 | B15 | – | 2.2E+07
16 | B16 | – | 9.4E+06
17 | B17 | – | 2.3E+07
18 | B18 | – | 2.3E+07
19 | B19 | 0.6 | 9.8E+05
20 | B20 | – | 5.5E+07
21 | B21 | 4.8 | 2.7E+06
22 | B22 | – | 3.8E+07
23 | B23 | 2.6 | 1.1E+06
